Measurements from patent publication US20060148038A1 (INST NAT L DE LA SANTE ET DE LA RECH MEDICALE, published 2006).

Target: T1, antithrombin (purified from human plasma) (human, UniProt P01008 33-464)
T1 construct: mature
Assay: SDS-PAGE with Coomassie blue after incubation with antithrombin and heparin
Description: The incubation is sustained for one hour at 25° C., and the reaction mixture is analysed by polyacrylamide gel electrophoresis (10%, crosslinking 29/1), after denaturation and reduction of the sample. After staining with Coomassie blue, the presence of covalent complexes between the (inactivated) form of the factor X derivative and the antithrombin results in a decrease in the intensity of the band corresponding to antithrombin (60 kDa), a decrease in the intensity of the band corresponding to the activated form of the factor X derivative (31 kDa), and the appearance of a new band of higher molecular weight (approximately 100 kDa) corresponding to the covalent complex.

T1 sequence (P01008 33-464): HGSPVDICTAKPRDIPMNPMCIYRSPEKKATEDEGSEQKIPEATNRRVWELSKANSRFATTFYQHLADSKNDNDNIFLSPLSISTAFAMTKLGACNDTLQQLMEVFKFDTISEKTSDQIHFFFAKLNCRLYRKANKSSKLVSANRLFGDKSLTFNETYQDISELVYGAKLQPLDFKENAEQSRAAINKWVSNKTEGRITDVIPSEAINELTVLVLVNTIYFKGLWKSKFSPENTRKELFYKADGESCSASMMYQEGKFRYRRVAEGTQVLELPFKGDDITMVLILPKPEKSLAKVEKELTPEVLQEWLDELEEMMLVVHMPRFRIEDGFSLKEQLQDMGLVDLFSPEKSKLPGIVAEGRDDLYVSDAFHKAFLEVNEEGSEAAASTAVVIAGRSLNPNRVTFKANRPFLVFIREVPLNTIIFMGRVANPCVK

B1: activated form of the GDX-SFR derivative (enzyme, human)
light: EDQVDPRLIDGKDGDQCETSPCQNQGKCKDGLGEYTCTCLEGFEGKNCELFTRKLCSLDNGDCDQFCHEEQNSVVCSCARGYTLADNGKACIPTGPYPCGKQTLER
heavy: SFRGQECKDGECPWQALLINEENEGFCGGTILSEFYILTAAHCLYQAKRFKVRVGDRNTEQEEGGEAVHEVEVVIKHNRFTKETYDFDIAVLRLKTPITFRMNVAPACLPERDWAESTLMTQKTGIVSGFGRTHEKGRQSTRLKMLEVPYVDRNSCKLSSSFIITQNMFCAGYDTKQEDACQGDSGGPHVTRFKDTYFVTGIVSWGEGCARKGKYGIYTKVTAFLKWIDRSMKTRGLPKAKSHAPEVITSSPLKEQKLISEEDLN
notes: domain: two EGF domains;domain: catalytic domain
binding result: no binding
